Ends that are not written are not given here.
B1: GST-FnBPA-10 (domain or fragment)
chain: KYEHGGNIIDIDFDSVPHIHGFNKHTEIIEEDTNKDKP
modifications: also: fused to GST carrier (carrier not in chain)
B2: GST-FnBPA-11 (domain or fragment)
chain: SYQFGGHNSVDFEEDTLPKVSGQNEGQQTIEEDTTPP
modifications: also: fused to GST carrier (carrier not in chain)
B3: GST-FnBPA-1 (domain or fragment)
chain: NEKNGPIIQNNKFEYKEDTIKETLTGQYDKNLVTTVEEEYDS
modifications: also: fused to GST carrier (carrier not in chain)
B4: GST-FnBPA-5 (domain or fragment)
chain: GGGQVTTESNLVEFDEESTKGIVTGAVSDHTTVEDTK
modifications: also: fused to GST carrier (carrier not in chain)
B5: GST-FnBPA-9 (domain or fragment)
chain: KYEQGGNIVDIDFDSVPQIHGQNKGNQSFEEDTEKDKP
modifications: also: fused to GST carrier (carrier not in chain)

Target: Fn N-terminal domain fragment (Fn-NTD) (human)
Assay: ITC

Fn N-terminal domain fragment (Fn-NTD) (human), sequence (chain, as listed by the source): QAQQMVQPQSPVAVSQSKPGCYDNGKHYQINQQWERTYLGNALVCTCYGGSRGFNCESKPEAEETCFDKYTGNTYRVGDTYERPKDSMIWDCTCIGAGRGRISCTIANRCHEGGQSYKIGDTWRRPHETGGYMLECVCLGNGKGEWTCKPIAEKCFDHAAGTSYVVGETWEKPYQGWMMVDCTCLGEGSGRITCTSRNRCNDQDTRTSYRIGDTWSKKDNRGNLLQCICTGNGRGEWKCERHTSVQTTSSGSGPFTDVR

First: B1
Second: B2
The Kd of the first is higher: 20 nM for the first, < 1 nM for the second. The second binds more tightly here.

Going from B3 to B4, the Kd rises from 4.8 nM to 44 nM (9.2-fold). The first binds more tightly here.

For B5, the Kd was 7.3 nM.

— article PMC4951027 (2016)
